B1: CPEB3 Ribozyme (parent)
chain: UAACAGGGGGCCACAGCAGAAGCGUUCACGUCGCAGCCCCUGUCAGAUUCUGGUGAAUCUGCGAAUUCUGCUGUAUAUCUC

Variants of: B1
Assay: self-cleavage, relative activity (ratio to wild type); higher = more cleavage; in vitro, sequencing
Summary of the method: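 Relative activity compares each variant's cleaved/total read fraction with that of the unmutated ribozyme. To get these fractions, barcoded CPEB3 ribozyme libraries from rounds of error-prone PCR were transcribed with T7 RNA polymerase for 5 hours at 37°C and then given 15 min of DNase I treatment before EDTA was added. The RNAs were reverse transcribed with template switching and sequenced on Illumina, and DNA sequencing linked barcodes to variants. A minimum of 5 reads applied, and three batches were averaged.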
In the case of UAACAGGGGGCUACAGCAGAAGCGUUCACGUCGCAGCCCCUGUCAGAUUCUGGUGAAUCUGCGAACUCUGCUGUAUAUCUC [C12U U66C], the self-cleavage is reported as 0.71. Variant UAACAGGGGGCUACAGCAGAAGCGUUCACGUCGCAGCCCCUGUCAGAUUCUGGUGAAUCUGCGAAUACUGCUGUAUAUCUC [C12U U67A] has a self-cleavage of 0.86. In the case of UAACAGGGGGCUACAGCAGAAGCGUUCACGUCGCAGCCCCUGUCAGAUUCUGGUGAAUCUGCGAAUCCUGCUGUAUAUCUC [C12U U67C], the self-cleavage is reported as 0.3. UAACAGGGGGCUACAGCAGAAGCGUUCACGUCGCAGCCCCUGUCAGAUUCUGGUGAAUCUGCGAAUGCUGCUGUAUAUCUC [C12U U67G] gave a self-cleavage of 0.95. For UAACAGGGGGCUACAGCAGAAGCGUUCACGUCGCAGCCCCUGUCAGAUUCUGGUGAAUCUGCGAAUUCAGCUGUAUAUCUC [C12U U69A], the self-cleavage was 0.95. Work on UAACAGGGGGCUACAGCAGAAGCGUUCACGUCGCAGCCCCUGUCAGAUUCUGGUGAAUCUGCGAAUUCCGCUGUAUAUCUC [C12U U69C] yielded a self-cleavage of 0.96. Variant UAACAGGGGGCUACAGCAGAAGCGUUCACGUCGCAGCCCCUGUCAGAUUCUGGUGAAUCUGCGAAUUCGGCUGUAUAUCUC [C12U U69G] has a self-cleavage of 1.18. UAACAGGGGGCUACAGCAGAAGCGUUCACGUCGCAGCCCCUGUCAGAUUCUGGUGAAUCUGCGAAUUCUGCAGUAUAUCUC [C12U U72A] gave a self-cleavage of 1.1. With UAACAGGGGGCUACAGCAGAAGCGUUCACGUCGCAGCCCCUGUCAGAUUCUGGUGAAUCUGCGAAUUCUGCCGUAUAUCUC [C12U U72C] the self-cleavage was 1.24. UAACAGGGGGCUACAGCAGAAGCGUUCACGUCGCAGCCCCUGUCAGAUUCUGGUGAAUCUGCGAAUUCUGCUGAAUAUCUC [C12U U74A] showed a self-cleavage of 1.3. UAACAGGGGGCUACAGCAGAAGCGUUCACGUCGCAGCCCCUGUCAGAUUCUGGUGAAUCUGCGAAUUCUGCUGGAUAUCUC [C12U U74G] showed a self-cleavage of 1.25. In the case of UAACAGGGGGCUACAGCAGAAGCGUUCACGUCGCAGCCCCUGUCAGAUUCUGGUGAAUCUGCGAAUUCUGCUGUACAUCUC [C12U U76C], the self-cleavage is reported as 1.31. UAACAGGGGGCUACAGCAGAAGCGUUCACGUCGCAGCCCCUGUCAGAUUCUGGUGAAUCUGCGAAUUCUGCUGUAUAACUC [C12U U78A] showed a self-cleavage of 1.28. For UAACAGGGGGCUACAGCAGAAGCGUUCACGUCGCAGCCCCUGUCAGAUUCUGGUGAAUCUGCGAAUUCUGCUGUAUACCUC [C12U U78C], the self-cleavage was 1.23. In the case of UAACAGGGGGCUACAGCAGAAGCGUUCACGUCGCAGCCCCUGUCAGAUUCUGGUGAAUCUGCGAAUUCUGCUGUAUAUCAC [C12U U80A], the self-cleavage is reported as 1.26. In the case of UAACAGGGGGCUACAGCAGAAGCGUUCACGUCGCAGCCCCUGUCAGAUUCUGGUGAAUCUGCGAAUUCUGCUGUAUAUCCC [C12U U80C], the self-cleavage is reported as 1.23. With UAACAGGGGGCCCCAGCAGAAGCGUUCACGUCGCAGCCCCUGUCAGAUUCUGGUGAAUCUGCGAAUUCUGCUGUAUAUCUC [A13C] the self-cleavage was 0.96. UAACAGGGGGCCCCGGCAGAAGCGUUCACGUCGCAGCCCCUGUCAGAUUCUGGUGAAUCUGCGAAUUCUGCUGUAUAUCUC [A13C A15G] gave a self-cleavage of 1.07. In the case of UAACAGGGGGCCCCUGCAGAAGCGUUCACGUCGCAGCCCCUGUCAGAUUCUGGUGAAUCUGCGAAUUCUGCUGUAUAUCUC [A13C A15U], the self-cleavage is reported as 1. UAACAGGGGGCCCCAGCGGAAGCGUUCACGUCGCAGCCCCUGUCAGAUUCUGGUGAAUCUGCGAAUUCUGCUGUAUAUCUC [A13C A18G] gave a self-cleavage of 0.67. Work on UAACAGGGGGCCCCAGCUGAAGCGUUCACGUCGCAGCCCCUGUCAGAUUCUGGUGAAUCUGCGAAUUCUGCUGUAUAUCUC [A13C A18U] yielded a self-cleavage of 0.25. Work on UAACAGGGGGCCCCAGCAGGAGCGUUCACGUCGCAGCCCCUGUCAGAUUCUGGUGAAUCUGCGAAUUCUGCUGUAUAUCUC [A13C A20G] yielded a self-cleavage of 0.72. With UAACAGGGGGCCCCAGCAGAUGCGUUCACGUCGCAGCCCCUGUCAGAUUCUGGUGAAUCUGCGAAUUCUGCUGUAUAUCUC [A13C A21U] the self-cleavage was 0.49. With UAACAGGGGGCCCCAGCAGAAGCGUUCGCGUCGCAGCCCCUGUCAGAUUCUGGUGAAUCUGCGAAUUCUGCUGUAUAUCUC [A13C A28G] the self-cleavage was 0.62. For UAACAGGGGGCCCCAGCAGAAGCGUUCUCGUCGCAGCCCCUGUCAGAUUCUGGUGAAUCUGCGAAUUCUGCUGUAUAUCUC [A13C A28U], the self-cleavage was 0.76. UAACAGGGGGCCCCAGCAGAAGCGUUCACGUCGCGGCCCCUGUCAGAUUCUGGUGAAUCUGCGAAUUCUGCUGUAUAUCUC [A13C A35G] showed a self-cleavage of 1.22. With UAACAGGGGGCCCCAGCAGAAGCGUUCACGUCGCUGCCCCUGUCAGAUUCUGGUGAAUCUGCGAAUUCUGCUGUAUAUCUC [A13C A35U] the self-cleavage was 0.42. Work on UAACAGGGGGCCCCAGCAGAAGCGUUCACGUCGCAGCCCCUGUCUGAUUCUGGUGAAUCUGCGAAUUCUGCUGUAUAUCUC [A13C A45U] yielded a self-cleavage of 0.44. Work on UAACAGGGGGCCCCAGCAGAAGCGUUCACGUCGCAGCCCCUGUCAGCUUCUGGUGAAUCUGCGAAUUCUGCUGUAUAUCUC [A13C A47C] yielded a self-cleavage of 0.34. With UAACAGGGGGCCCCAGCAGAAGCGUUCACGUCGCAGCCCCUGUCAGGUUCUGGUGAAUCUGCGAAUUCUGCUGUAUAUCUC [A13C A47G] the self-cleavage was 1.05. With UAACAGGGGGCCCCAGCAGAAGCGUUCACGUCGCAGCCCCUGUCAGAUUCUGGUGGAUCUGCGAAUUCUGCUGUAUAUCUC [A13C A56G] the self-cleavage was 0.65. With UAACAGGGGGCCCCAGCAGAAGCGUUCACGUCGCAGCCCCUGUCAGAUUCUGGUGUAUCUGCGAAUUCUGCUGUAUAUCUC [A13C A56U] the self-cleavage was 0.48. Work on UAACAGGGGGCCCCAGCAGAAGCGUUCACGUCGCAGCCCCUGUCAGAUUCUGGUGAGUCUGCGAAUUCUGCUGUAUAUCUC [A13C A57G] yielded a self-cleavage of 1.04. In the case of UAACAGGGGGCCCCAGCAGAAGCGUUCACGUCGCAGCCCCUGUCAGAUUCUGGUGAUUCUGCGAAUUCUGCUGUAUAUCUC [A13C A57U], the self-cleavage is reported as 0.28.
